Patent US20240035031A1

Target: PYL1-MS2 (MS2 binding protein fused to PYL1 via a glycine-serine linker) (UniProt Q8VZS8)
Test: cell-based or functional assay

dPspCas13b-ABI1 (catalytically inactive Prevotella sp. Cas13b fused to the abscisic acid-binding protein ABI1 via a glycine-serine linker) (from UniProt P49597 126-423)
GFP+ cells by flow cytometry (split GFP trans-splicing reporter) in the presence of 1.5 mM ABA (% of cells GFP+): > 40
